Experimental data: article PMC6235853

How the values were obtained:
[1] = target: CusB N-terminal fragment residues 1-61, S(Met) (unlabelled) (Escherichia coli); assay: rapid freeze quench X-ray absorption spectroscopy (RFQ-XAS, Se K edge); 23 °C; 1:2 mixture of apo-SeM-CusF with Cu(I)-loaded S(met)-CusB-NT, 50 mM HEPES pH 7.5, 5% ethylene glycol, liquid ethane quench, 15 ms to 30 s; Se-Cu peak height fitted (DYNAFIT) to rapid protein-protein association followed by intra-complex metal transfer; the complex shares one Cu(I) between ligands of both proteins
Chain of CusB N-terminal fragment residues 1-61, S(Met) (unlabelled) (Escherichia coli) (P77239 29-89 limits assumed): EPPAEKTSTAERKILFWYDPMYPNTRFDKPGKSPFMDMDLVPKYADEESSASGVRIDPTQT

[2] = target: CusB N-terminal fragment residues 1-61, S(Met) (unlabelled) (Escherichia coli)

Row | kon [1] [M⁻¹ s⁻¹] | fast phase of the quenching of the CusF W44 344 nm emission, stopped-flow fluorescence, 4 °C, apo-S(met)-CusF mixed with Cu(I)-S(Met)-CusB-NT [2] [s⁻¹] | slow phase of the quenching of the CusF W44 344 nm emission, stopped-flow fluorescence, 4 °C, apo-S(met)-CusF mixed with Cu(I)-S(Met)-CusB-NT [2] [s⁻¹] | Substance
1 | 1e+06 | – | – | selenomethionine-labelled CusF(6-88) M8I M59I double mutant (domain or fragment)
2 | – | 165 | 0.012 | CusF(6-88) M8I M59I double mutant, S(Met) (unlabelled) (domain or fragment)
